From article PMC3142331 (2011)

Molecular target: T1, RNA polymerase II CTD tetraheptad CTD (UniProt P24928, CTD Ser5 phosphorylation)
T1 chain: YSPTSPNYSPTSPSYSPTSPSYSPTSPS
Test: guanylyltransferase stimulation assay

B1: Mce (protein)
chain: not shown
Kd: 1.5 µM
